Assay results: paper doi:10.1101/215541, “DHX36 binding at G-rich sites in mRNA untranslated regions promotes translation”

T1: FH-DHX36 (RHAU, G4R1) (human (expressed in HEK293 T-REx Flp-In …, UniProt Q9H2U1 1-1008))
T1 sequence: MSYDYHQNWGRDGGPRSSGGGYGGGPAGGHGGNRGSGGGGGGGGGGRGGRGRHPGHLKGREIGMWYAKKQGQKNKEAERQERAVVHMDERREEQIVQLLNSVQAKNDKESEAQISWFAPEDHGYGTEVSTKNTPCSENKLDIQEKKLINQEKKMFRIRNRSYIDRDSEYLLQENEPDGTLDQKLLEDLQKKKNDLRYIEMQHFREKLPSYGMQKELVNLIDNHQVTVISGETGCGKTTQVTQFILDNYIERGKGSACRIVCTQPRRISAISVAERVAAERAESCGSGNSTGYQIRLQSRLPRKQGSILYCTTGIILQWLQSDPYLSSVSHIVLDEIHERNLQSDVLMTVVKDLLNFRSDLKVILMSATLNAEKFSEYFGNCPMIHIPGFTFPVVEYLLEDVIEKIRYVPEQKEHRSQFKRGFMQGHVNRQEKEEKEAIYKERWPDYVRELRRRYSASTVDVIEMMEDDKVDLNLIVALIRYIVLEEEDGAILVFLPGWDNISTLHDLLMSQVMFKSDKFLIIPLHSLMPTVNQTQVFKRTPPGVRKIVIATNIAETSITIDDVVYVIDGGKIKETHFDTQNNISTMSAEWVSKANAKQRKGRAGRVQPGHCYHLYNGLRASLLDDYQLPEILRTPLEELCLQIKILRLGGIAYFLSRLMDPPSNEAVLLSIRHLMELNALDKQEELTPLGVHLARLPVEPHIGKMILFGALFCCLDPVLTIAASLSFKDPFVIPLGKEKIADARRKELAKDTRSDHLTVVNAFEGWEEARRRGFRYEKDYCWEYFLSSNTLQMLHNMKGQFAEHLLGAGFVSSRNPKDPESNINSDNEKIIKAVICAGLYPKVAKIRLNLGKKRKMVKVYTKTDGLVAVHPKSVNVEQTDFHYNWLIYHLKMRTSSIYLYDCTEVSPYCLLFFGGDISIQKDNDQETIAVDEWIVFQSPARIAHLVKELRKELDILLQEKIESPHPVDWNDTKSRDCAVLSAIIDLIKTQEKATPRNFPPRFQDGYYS


Target: T1, FH-DHX36 (RHAU, G4R1)
Test: MST; 25 nM oligonucleotide, DHX36 up to 50 nM; MST: 1x MST buffer (composition not stated), 0.5% BSA, 5 mM DTT; 25 nM Cy5 oligo (folding buffer for CD oligos: 10 mM Tris pH 7.5, 100 mM KCl, 1 mM EDTA); temperature not stated
Conditions: protein: recombinant, tags: N-terminal FLAG-HA (pFRT-FlagHA vector), label: 5'-Cy5

Binder	binding result (parallel G4 (CD on the longer A10 version))	binding result (no G4 signature (CD on the longer A10 version))
AAAAAGGAGGAGGAGGAGGA (structured_DNA) [DHX36 RRE for MST (G-rich PAR-CLIP motif)]	binds	
AAAAAGCAGCAGGAGCAGCA (ssDNA) [mutated DHX36 RRE for MST]		no binding
